Results from publication doi:10.1101/651463 (bioRxiv, 2019).

Experiments:
C5aR1-βarr1 complex = C5aR1-βarr1 complex (Homo sapiens (Human). ; Rattus …, UniProt P21730;P29066); assay: co-IP
V2R-βarr1 complex = V2R-βarr1 complex (Homo sapiens (Human). ; Rattus …, UniProt P30518;P29066); assay: co-IP

binding result (C5aR1-βarr1 complex): binds | binding result (V2R-βarr1 complex): binds
B1: Intrabody30 (scFv, V domains shown)
VH: EVQLVESGGGLVQPGGSLRLSCAASGFNVYSSSIHWVRQAPGKGLEWVASISSYYGYTYYADSVKGRFTISADTSKNTAYLQMNSLRAEDTAVYYCARSRQFWYSGLDYWGQGTLVTVSS
VL: DIQMTQSPSSLSASVGDRVTITCRASQSVSSAVAWYQQKPGKAPKLLIYSASSLYSGVPSRFSGSRSGTDFTLTISSLQPEDFATYYCQQYKYVPVTFGQGTKVEIK
